Source: patent publication US20240016892A1 (SHATTUCK LABS, published 2024)

Legend:
[1] = molecular target: T1, recombinant human CD112 (PVRL2) (human, UniProt Q92692 32-360); assay: BLI (Octet-Red96), tagged rhCD112 (PVRL2) immobilised on biosensor
T1 construct: also called rhCD112 (PVRL2); Nectin-2
T1 sequence (looked up): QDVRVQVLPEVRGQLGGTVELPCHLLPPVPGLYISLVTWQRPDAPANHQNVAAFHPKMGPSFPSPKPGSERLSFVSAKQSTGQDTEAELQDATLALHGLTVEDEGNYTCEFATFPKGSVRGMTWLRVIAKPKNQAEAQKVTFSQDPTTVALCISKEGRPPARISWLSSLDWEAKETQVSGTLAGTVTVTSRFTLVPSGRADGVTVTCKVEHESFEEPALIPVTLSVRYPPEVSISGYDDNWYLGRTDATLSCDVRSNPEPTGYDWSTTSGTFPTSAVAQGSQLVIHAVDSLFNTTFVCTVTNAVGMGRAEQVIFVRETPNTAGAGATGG
Experimental: (§1) Bio-Layer interferometry-based affinity testing was used to determine the on-rates (Ka), off-rates (Kd) and binding affinities (KD) of the TIGIT-Fc-LIGHT chimeric protein to intended binding targets, using histidine- or biotin-tagged versions of the human recombinant proteins (PVR, HVEM, LTβR, PVRL2, PVRL3, and Nectin-4; purchased from Acro Biosystems or Sino Biological). Commercially available or internally produced single-sided fusion protein controls (TIGIT-Fc and Fc-LIGHT) were also tested in parallel. Targets were immobilized at a concentration of 3 μg/mL in Kinetics buffer (PBS/0.1% Tween-20/1% BSA; pH7.0) to anti-pentaHis or streptavidin coated biosensors. Direct binding of fusion proteins to recombinant target proteins was performed on an Octet-Red96 BLI instrument, using association and dissociation times of 90 and 120 seconds, respectively.

[2] = molecular target: T2, recombinant human HVEM-Fc (human, UniProt Q92956 39-202, limits assumed); assay: MSD sandwich 'Dual - Potency #2': capture HVEM-Fc, TIGIT-Fc-LIGHT titrated, detection PVR-Biotin
T2 construct: also called human recombinant HVEM (MSD plates); not shown: Fc of the bought fusion (Acro Biosystems); not described
T2 sequence (looked up): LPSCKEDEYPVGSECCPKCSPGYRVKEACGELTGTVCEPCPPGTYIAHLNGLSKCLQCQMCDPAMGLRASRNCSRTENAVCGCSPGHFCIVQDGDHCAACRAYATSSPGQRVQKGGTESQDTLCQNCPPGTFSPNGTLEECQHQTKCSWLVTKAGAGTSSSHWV
Experimental: (§2) For the TIGIT-Fc-LIGHT chimeric protein; MSD Multi-Array plates (MSD) were pre-coated overnight with recombinant human LTβR-Fc or HVEM-Fc (Acro Biosystems) at 4° C. The plates were blocked with Diluent 100 (MSD) for at least one hour at room temperature on a shaker. After washing, analysis samples were added and then serially diluted 3-fold and loaded in duplicate wells to generate 8-10 test concentrations. The bound the TIGIT-Fc-LIGHT chimeric protein was detected with recombinant biotinylated human PVR (Acro Biosystems). Streptavidin conjugated to ruthenium (MSD), was added to bind the biotin labeled detector. MSD Gold Reading buffer (MSD) was added to the plate, and upon application of an electrical charge, an electrochemiluminescent signal was produced and detected with the MSD MESO QuickPlex SQ 120MM, Model 1300, to generate relative light units (RLU). Analogous assays were performed using mTIGIT-Fc-LIGHT and murine recombinant PVR, HVEM, and […] (Acro Biosystems).
(§3) The binding of the TIGIT-Fc-LIGHT chimeric protein to its receptors was characterized by Meso Scale Discovery (MSD) ELISA assays. […] Binding of the chimeric protein to LTβR-Fc was detected using an PVR-Biotin and using an electrochemiluminescence (ECL) readout. […] Binding of the chimeric protein to HVEM-Fc was detected using an PVR-Biotin and using an electrochemiluminescence (ECL) readout. […]

[3] = molecular target: T3, anti-human TIGIT antibody (MSD capture); assay: MSD sandwich 'Dual - Antibody': capture anti-TIGIT, TIGIT-Fc-LIGHT titrated, detection anti-LIGHT
T3 construct: also called anti-TIGIT antibody

recombinant human PVR = molecular target: T4, recombinant human PVR (human, UniProt P15151 21-343); assay: MSD sandwich 'Dual - Potency #1': capture LTβR-Fc, TIGIT-Fc-LIGHT titrated, detection PVR-Biotin (same curve as the capture row)
T4 construct: The tagged PVR of the BLI assay and the biotinylated PVR used as detector in MSD are treated as one molecule; also called rhPVR; CD155
T4 sequence (looked up): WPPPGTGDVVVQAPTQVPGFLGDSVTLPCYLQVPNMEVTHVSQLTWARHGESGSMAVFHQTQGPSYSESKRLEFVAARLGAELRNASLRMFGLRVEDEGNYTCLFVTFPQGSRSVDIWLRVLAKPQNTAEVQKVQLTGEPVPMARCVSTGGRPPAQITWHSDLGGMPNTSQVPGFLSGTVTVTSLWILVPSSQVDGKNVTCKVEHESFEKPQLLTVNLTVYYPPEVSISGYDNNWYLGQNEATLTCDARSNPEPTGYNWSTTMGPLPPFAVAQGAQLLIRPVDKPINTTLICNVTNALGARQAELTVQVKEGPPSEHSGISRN
Experimental: as §2, §3

recombinant human LTβR = molecular target: T5, recombinant human LTβR (human, UniProt P36941 31-227, limits assumed); assay: BLI (Octet-Red96), tagged rhLTβR immobilised on biosensor
T5 construct: Bought from Acro Biosystems or Sino Biological; construct limits and tag not specified; also called rhLTβR; TNFRSF3
T5 sequence (P36941 31-227 limits assumed): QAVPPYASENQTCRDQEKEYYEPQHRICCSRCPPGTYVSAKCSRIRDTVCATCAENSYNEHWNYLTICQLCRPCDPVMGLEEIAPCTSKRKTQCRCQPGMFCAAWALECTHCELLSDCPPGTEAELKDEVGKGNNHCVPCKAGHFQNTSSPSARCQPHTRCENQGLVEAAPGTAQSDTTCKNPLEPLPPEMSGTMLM
Experimental: as §1
Protein-protein interactions (PPI) between the fusion proteins and their cognate binding partners were characterized using both recombinant protein and cell-based methods. First, bio-layer interferometry-based affinity testing was used to assess the kinetics of receptor/ligand binding.

[4] = molecular target: T6, recombinant human LTβR-Fc (human, UniProt P36941 31-227, limits assumed); assay: MSD sandwich 'Dual - Potency #1': capture LTβR-Fc, TIGIT-Fc-LIGHT titrated, detection PVR-Biotin
T6 construct: not shown: Fc of the bought fusion (Acro Biosystems); not described
T6 sequence (P36941 31-227 limits assumed): as above
Experimental: as §2, §3

B1: human TIGIT-Fc-LIGHT chimeric protein (Fc fusion)
chain: MMTGTIETTGNISAEKGGSIILQCHLSSTTAQVTQVNWEQQDQLLAICNADLGWHISPSFKDRVAPGPGLGLTLQSLTVNDTGEYFCIYHTYPDGTYTGRIFLEVLESSVAEHGARFQIPSKYGPPCPPCPAPEFLGGPSVFLFPPKPKDQLMISRTPEVTCVVVDVSQEDPEVQFNWYVDGVEVHNAKTKPREEQFNSTYRVVSVLTVLHQDWLSGKEYKCKVSSKGLPSSIEKTISNATGQPREPQVYTLPPSQEEMTKNQVSLTCLVKGFYPSDIAVEWESNGQPENNYKTTPPVLDSDGSFFLYSRLTVDKSRWQEGNVFSCSVLHEALHNHYTQKSLSLSLGKIEGRMDLQLHWRLGEMVTRLPDGPAGSWEQLIQERRSHEVNPAAHLTGANSSLTGSGGPLLWETQLGLAFLRGLSYHDGALVVTKAGYYYIYSKVQLGGVGCPLGLASTITHGLYKRTPRYPEELELLVSQQSPCGRATSSSRVWWDSSFLGGVVHLEAGEKVVVRVLDERLVRLRDGTRSYFGAFMV
notes: Said to exist as a hexamer (dimer of trimers); Glycosylated; also called hTIGIT-Fc-LIGHT; TIGIT-Fc(IgG4)-LIGHT
Question: Which results are given for B1?
Answer: Kd [1]: 3 nM; koff [1]: 0.000471 s⁻¹; kon [1]: 172000 M⁻¹ s⁻¹; EC50 [2]: 86 nM; EC50 [3]: 1.15 nM; EC50 (recombinant human PVR): 28.3 nM; Kd (recombinant human LTβR): 3.52 nM; koff (recombinant human LTβR): 7.44e-05 s⁻¹; kon (recombinant human LTβR): 21200 M⁻¹ s⁻¹; EC50 [4]: 28.3 nM
